Results on 2 substances are retold here after PMC3102069, “Charge Isomers of Myelin Basic Protein: Structure and Interactions with Membranes, Nucleotide Analogues, and Calmodulin” (PLoS ONE, 2011).

Assay [1] concerns the target recombinant murine 18.5-kDa myelin basic protein, pseudodeiminated C8 charge isomer analogue (rmC8) (mouse). Kind of assay: SEC; Superdex 200 HR 10/30, room temperature; 20 mM HEPES pH 7.5, 100 mM NaCl, 10 mM CaCl2; rmMBP 25 µM with CaM 12.5-125 µM (rmMBP:CaM 2:1, 1:1, 1:2, 1:3, 1:5). (Size exclusion chromatography separates by hydrodynamic size, large species first.)
For assay [2], the target named is recombinant murine 18.5-kDa myelin basic protein, C1 charge isomer analogue (rmC1) (mouse) (UniProt P04370). The description is as above.
In assay [3] the target is recombinant murine 18.5-kDa myelin basic protein, pseudodeiminated C8 charge isomer analogue (rmC8) (mouse). Kind of assay: ITC; CaM (100 µM) in the syringe titrated into rmMBP (5 µM) in the cell; 20 mM HEPES pH 7.5, 100 mM NaCl, 10 mM CaCl2; one-site model with floating, apparent stoichiometry; +20°C. A general note: In ITC the heat of successive injections is recorded.
The target in assay [4] is recombinant murine 18.5-kDa myelin basic protein, C1 charge isomer analogue (rmC1) (mouse) (UniProt P04370). Described as above.
Assay [5] deals with recombinant murine 18.5-kDa myelin basic protein, pseudodeiminated C8 charge isomer analogue (rmC8) (mouse). Kind of assay: ITC; CaM (100 µM) in the syringe titrated into rmMBP (5 µM) in the cell; 20 mM HEPES pH 7.5, 100 mM NaCl, 10 mM CaCl2; one-site model with floating, apparent stoichiometry; 35°C (temperature from Table 3).
For assay [6], the target named is recombinant murine 18.5-kDa myelin basic protein, C1 charge isomer analogue (rmC1) (mouse) (UniProt P04370). The assay is described as above.
Assay [7] deals with recombinant murine 18.5-kDa myelin basic protein, pseudodeiminated C8 charge isomer analogue (rmC8) (mouse). As to the kind of experiment: ITC; CaM (100 µM) in the syringe titrated into rmMBP (5 µM) in the cell; 20 mM HEPES pH 7.5, 100 mM NaCl, 10 mM CaCl2; one-site model with floating, apparent stoichiometry; +30°C.
Assay [8] addresses recombinant murine 18.5-kDa myelin basic protein, C1 charge isomer analogue (rmC1) (mouse) (UniProt P04370). The assay is described as above.
In assay [9] the target is recombinant murine 18.5-kDa myelin basic protein, pseudodeiminated C8 charge isomer analogue (rmC8) (mouse). As to the kind of experiment: ITC; CaM (100 µM) in the syringe titrated into rmMBP (5 µM) in the cell; 20 mM HEPES pH 7.5, 100 mM NaCl, 10 mM CaCl2; one-site model with floating, apparent stoichiometry; +25°C.
In assay [10] the target is recombinant murine 18.5-kDa myelin basic protein, C1 charge isomer analogue (rmC1) (mouse) (UniProt P04370). The description is as above.
In assay [11] the target is recombinant murine 18.5-kDa myelin basic protein, pseudodeiminated C8 charge isomer analogue (rmC8) (mouse). Kind of assay: ITC; CaM (100 µM) in the syringe titrated into rmMBP (5 µM) in the cell; 20 mM HEPES pH 7.5, 100 mM NaCl, 10 mM CaCl2; one-site model with floating, apparent stoichiometry; +15°C.
For assay [12], the target named is recombinant murine 18.5-kDa myelin basic protein, C1 charge isomer analogue (rmC1) (mouse) (UniProt P04370). The assay is described as above.
Assay [13] deals with calmodulin (UniProt P0DP23). Conditions: cited from earlier work.

Chain of recombinant murine 18.5-kDa myelin basic protein, C1 charge isomer analogue (rmC1) (mouse) (P04370 other isoform, or with tags, fused parts or gaps): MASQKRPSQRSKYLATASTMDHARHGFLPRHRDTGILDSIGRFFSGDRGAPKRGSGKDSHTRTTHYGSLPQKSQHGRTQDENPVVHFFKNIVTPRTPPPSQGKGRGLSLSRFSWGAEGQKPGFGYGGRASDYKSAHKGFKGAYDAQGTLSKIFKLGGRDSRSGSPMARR

“calmodulin (CaM), recombinant (from UniProt P0DP23 1-149) (natural protein)”: the stoichiometry N in [1] came out at 2; in assay [2], 2; in assay [3] it was 1.3; in assay [4], 1.5; in assay [5], 0.8; in assay [6], 0.9. For the same substance, the stoichiometry N in assay [7] was determined as 1; in assay [8] it was 1.4; in [9], 1.2; in assay [10], 1.9; in assay [11], 1.5; in [12], 1.5. The Kd in assay [5] came out at 1900 nM; in assay [11], 1200 nM.
Turning to “myelin basic protein (brain) (from UniProt P02687)”, the Kd in assay [13] was 10 nM.

As usually defined, the stoichiometry N is the number of molecules, sites or subunits per partner or assembly.
